T1: human CEA protein on the cell surface (human, UniProt P06731 35-685)
T1 sequence (looked up): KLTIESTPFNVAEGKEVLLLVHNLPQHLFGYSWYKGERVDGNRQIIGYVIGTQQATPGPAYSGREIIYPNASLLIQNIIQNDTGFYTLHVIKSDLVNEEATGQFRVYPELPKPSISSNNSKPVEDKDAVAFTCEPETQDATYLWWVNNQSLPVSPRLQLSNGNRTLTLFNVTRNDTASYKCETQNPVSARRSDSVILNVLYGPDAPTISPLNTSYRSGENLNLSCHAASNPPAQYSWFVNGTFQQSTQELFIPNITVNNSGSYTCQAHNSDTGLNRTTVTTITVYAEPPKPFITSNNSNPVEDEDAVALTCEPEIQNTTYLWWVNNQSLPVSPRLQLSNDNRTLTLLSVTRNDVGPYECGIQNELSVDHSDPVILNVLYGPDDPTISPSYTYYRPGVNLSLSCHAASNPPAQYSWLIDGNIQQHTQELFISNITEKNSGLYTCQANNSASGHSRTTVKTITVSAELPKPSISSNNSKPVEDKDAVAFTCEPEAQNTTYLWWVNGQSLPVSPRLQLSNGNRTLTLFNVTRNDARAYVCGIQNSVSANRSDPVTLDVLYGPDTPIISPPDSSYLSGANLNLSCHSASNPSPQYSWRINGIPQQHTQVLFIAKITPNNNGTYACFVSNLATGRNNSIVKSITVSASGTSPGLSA

T2: human CEACAM1 expressed on CHO cell surface (human, UniProt P13688 35-526)
T2 construct: also called CEACAM1-CHO
T2 sequence: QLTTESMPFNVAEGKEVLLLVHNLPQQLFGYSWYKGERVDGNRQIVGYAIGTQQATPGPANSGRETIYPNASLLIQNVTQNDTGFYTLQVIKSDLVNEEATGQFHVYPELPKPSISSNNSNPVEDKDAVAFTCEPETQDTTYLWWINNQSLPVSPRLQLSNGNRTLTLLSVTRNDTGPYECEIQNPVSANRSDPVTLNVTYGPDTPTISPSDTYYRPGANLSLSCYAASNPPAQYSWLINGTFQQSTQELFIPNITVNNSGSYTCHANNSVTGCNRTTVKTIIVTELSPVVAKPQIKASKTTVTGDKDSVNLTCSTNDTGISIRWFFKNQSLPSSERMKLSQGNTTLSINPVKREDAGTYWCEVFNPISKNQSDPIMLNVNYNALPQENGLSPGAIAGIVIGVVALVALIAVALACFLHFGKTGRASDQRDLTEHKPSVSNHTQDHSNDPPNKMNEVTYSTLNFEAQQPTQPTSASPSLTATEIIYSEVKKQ

T3: monkey CEA expressed on CHO cell surface (cynomolgus monkey)
T3 construct: also called cynoCEA-CHO; monkey CEA proteins on the cell surface
T3 chain: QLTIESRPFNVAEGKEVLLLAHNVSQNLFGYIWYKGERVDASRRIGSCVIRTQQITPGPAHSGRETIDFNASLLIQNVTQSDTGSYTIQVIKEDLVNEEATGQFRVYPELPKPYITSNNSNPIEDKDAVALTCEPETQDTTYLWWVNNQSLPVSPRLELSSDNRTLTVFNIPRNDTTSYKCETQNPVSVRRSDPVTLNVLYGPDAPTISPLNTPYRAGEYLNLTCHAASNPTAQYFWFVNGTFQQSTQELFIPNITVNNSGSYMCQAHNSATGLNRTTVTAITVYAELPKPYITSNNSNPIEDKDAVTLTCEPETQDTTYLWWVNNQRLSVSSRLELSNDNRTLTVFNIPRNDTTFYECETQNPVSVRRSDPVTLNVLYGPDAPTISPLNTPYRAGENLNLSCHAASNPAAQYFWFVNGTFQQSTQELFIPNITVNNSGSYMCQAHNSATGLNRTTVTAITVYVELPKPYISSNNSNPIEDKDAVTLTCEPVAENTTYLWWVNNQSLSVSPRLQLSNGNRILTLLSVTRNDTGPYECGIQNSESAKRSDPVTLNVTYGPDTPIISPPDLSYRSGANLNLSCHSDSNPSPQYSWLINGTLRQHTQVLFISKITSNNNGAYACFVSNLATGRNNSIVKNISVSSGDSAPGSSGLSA


Experiments:
[1] = molecular target: T1, human CEA protein on the cell surface; assay: cell-based or functional assay
[2] = molecular target: T2, human CEACAM1 expressed on CHO cell …; assay: FACS, CEACAM1-CHO cells
[3] = molecular target: T3, monkey CEA expressed on CHO cell surface; assay: FACS, cynoCEA-CHO cells
Protocol: (§1) In order to detect the binding of the antibody to the CEA protein on the cell surface, the binding activity of the antibody was determined by FACS using cells expressing CEA on the cell surface. Cells were harvested and centrifuged at 400 g at 4° C. for 5 min. Pre-cooled PBS containing FBS at final concentration 10% was added, and the mixture was centrifuged at 400 g at 4° C. for 5 min; the procedures were repeated twice. The cells were seeded into a 96-well plate at 10⁵ cells/well, and 100 μL of gradient diluted antibody solution was added to each well. The plate was incubated at 4° C. for 60 min and centrifuged, and the supernatant was removed. 250 μL of pre-cooled PBS containing FBS at final concentration 10% was added to each well to resuspend the cells, and the suspension was centrifuged at 400 g at 4° C. for 5 min, followed by the removal of the supernatant; the procedures were repeated twice. 50 μL of 1:200 diluted secondary antibody Alexa Fluor@488 goat anti-human IgG (H+L) (Lifetechologies, Cat #A11013) was added. […] 250 μL of pre-cooled PBS containing FBS at final concentration 10% was added to each cell to resuspend the cells, and the suspension was centrifuged at 400 g at 4° C. for 5 min; the procedures were repeated twice. 100 μL of pre-cooled PBS was added to each well to resuspend the cells. The plate was analyzed by a flow cytometer (BD, FACSverse) for fluorescence signal values.

[4] = molecular target: T1, human CEA protein on the cell surface; assay: FACS, MKN45 cells
Protocol: as §1

Row | Binder | IC50 of inhibition of cell proliferation, LS174T (with moderate CEA expression) [1] [nM] | IC50 of inhibition of cell proliferation, MKN45 (with high CEA expression) [1] [nM] | binding result [2] | EC50 [3] [nM] | EC50 [4] [nM]
1 | Hu67-14-2-A (DAR 6.41) (antibody, human IgG1, kappa, V domains shown, see heavy chain; linker-toxin 2-A coupled to cysteine thiols of the TCEP-reduced antibody; mean DAR 6.41 per antibody) VH: EVQLVQSGAEVKKPGESLKISCKGSGYSFTDYHMNWVKQMPGKGLEWMGDINPDIGGTSYNQNFKGKVTISVDKSISTAYLQWSSLKASDTAMYYCARWDFDSFANWGQGTLVTVSS VL: DIQMTQSPSSLSASVGDRVTITCRASESVSIIGTNLIHWYQQKPGKAPKLLIYHASNLETGVPSRFSGSGSGTDFTLTISSLQPEDFATYYCLQSRKIPYTFGGGTKVEIKR | 9.24 | 3.33 |  |  | 
2 | Hu103-32-2-A (DAR 6.94) (antibody, human IgG1, lambda, V domains shown, see heavy chain; linker-toxin 2-A coupled to cysteine thiols of the TCEP-reduced antibody; mean DAR 6.94 per antibody) VH: EVQLVQSGSELKKPGASVKVSCKASGYTFTTYGVIWVRQAPGQGLEWMGWINTYSGVPTYASDFKGRFVFSLDTSVSTAYLQISSLKAEDTAVYYCARKKTLTTVTPWFAYWGQGTLVTVSS VL: ELVLTQSPSASASLGASVKLTCTLSSQHSTYTIEWYQQQPEKGPRYVMELKKDGSHSTGEGIPDRFSGSSSGAERYLTISSLQSEDEADYYCGVGNTIKEQFVYVFGGGTKLTVLG | 2.37 | 3 |  |  | 
3 | Hu63-13-2-A (DAR 3.97) (antibody, human IgG1, kappa, V domains shown, see heavy chain; linker-toxin 2-A coupled to cysteine thiols of the TCEP-reduced antibody; mean DAR 3.97 per antibody) VH: EVQLVQSGAEVKKPGASVKVSCKASGYTFTDFYMNWVRQAPGQGLEWMGDIFPKSGNTDYNRKFKDRVTMTRDTSTSTVYMELSSLRSEDTAVYYCARSGYGNYVFDYWGQGTLVTVSS VL: DIQMTQSPSSLSASVGDRVTITCRTSQDINIYLNWYQQKPGKAPKLLIYYRSGLLSGVPSRFSGSGSGTDFTLTISSLQPEDFATYYCQQGNTLPPTFGGGTKVEIKR | 19.8 | 34 |  |  | 
4 | Hu67-14-2-A (DAR 4.28) (antibody, human IgG1, kappa, V domains shown, see heavy chain; linker-toxin 2-A coupled to cysteine thiols of the TCEP-reduced antibody; mean DAR 4.28 per antibody) VH: EVQLVQSGAEVKKPGESLKISCKGSGYSFTDYHMNWVKQMPGKGLEWMGDINPDIGGTSYNQNFKGKVTISVDKSISTAYLQWSSLKASDTAMYYCARWDFDSFANWGQGTLVTVSS VL: DIQMTQSPSSLSASVGDRVTITCRASESVSIIGTNLIHWYQQKPGKAPKLLIYHASNLETGVPSRFSGSGSGTDFTLTISSLQPEDFATYYCLQSRKIPYTFGGGTKVEIKR | 15.6 | 9.39 |  |  | 
5 | Hu103-32-2-A (DAR 4.8) (antibody, human IgG1, lambda, V domains shown, see heavy chain; linker-toxin 2-A coupled to cysteine thiols of the TCEP-reduced antibody; mean DAR 4.8 per antibody) VH: EVQLVQSGSELKKPGASVKVSCKASGYTFTTYGVIWVRQAPGQGLEWMGWINTYSGVPTYASDFKGRFVFSLDTSVSTAYLQISSLKAEDTAVYYCARKKTLTTVTPWFAYWGQGTLVTVSS VL: ELVLTQSPSASASLGASVKLTCTLSSQHSTYTIEWYQQQPEKGPRYVMELKKDGSHSTGEGIPDRFSGSSSGAERYLTISSLQSEDEADYYCGVGNTIKEQFVYVFGGGTKLTVLG | 3.08 | 2.86 |  |  | 
6 | Hu47-14-2-A (DAR 6.6) (antibody, human IgG1, kappa, V domains shown, see heavy chain; linker-toxin 2-A coupled to cysteine thiols of the TCEP-reduced antibody; mean DAR 6.6 per antibody) VH: EVQLVQSGSELKKPGASVKVSCKASGYTFTTYGMSWVKQAPGQGLKWMGWINTYSGVPTYASDFKGRFVFSLDTSVSTAYLQISSLKAEDTAVYYCARRGNYGRWDFDVWGQGTTVTVSS VL: EIVLTQSPDFQSVTPKEKVTITCSVSSTISSSNLHWYQQKPDQSPKPLIYGTSNLASGVPSRFSGSGSGTDYTLTINSLEAEDAATYYCQQWSIYPLTFGQGTKLEIKR | 10.3 | 6.58 |  |  | 
7 | Hu63-13-2-A (DAR 6.29) (antibody, human IgG1, kappa, V domains shown, see heavy chain; linker-toxin 2-A coupled to cysteine thiols of the TCEP-reduced antibody; mean DAR 6.29 per antibody) VH: EVQLVQSGAEVKKPGASVKVSCKASGYTFTDFYMNWVRQAPGQGLEWMGDIFPKSGNTDYNRKFKDRVTMTRDTSTSTVYMELSSLRSEDTAVYYCARSGYGNYVFDYWGQGTLVTVSS VL: DIQMTQSPSSLSASVGDRVTITCRTSQDINIYLNWYQQKPGKAPKLLIYYRSGLLSGVPSRFSGSGSGTDFTLTISSLQPEDFATYYCQQGNTLPPTFGGGTKVEIKR | 13.1 | 3.93 |  |  | 
8 | antibody in SAR-408701 (antibody, human IgG1, kappa, V domains shown, Positive control antibody; also called Sanofi) VH: EVQLQESGPGLVKPGGSLSLSCAASGFVFSSYDMSWVRQTPERGLEWVAYISSGGGITYAPSTVKGRFTVSRDNAKNTLYLQMNSLTSEDTAVYYCAAHYFGSSGPFAYWGQGTLVTVSS VL: DIQMTQSPASLSASVGDRVTITCRASENIFSYLAWYQQKPGKSPKLLVYNTRTLAEGVPSRFSGSGSGTDFSLTISSLQPEDFATYYCQHHYGTPFTFGSGTKLEIKR |  |  | no binding | 17.3 | 
9 | Hu67-4 (antibody, human IgG1, kappa, V domains shown) VH: EVQLVQSGAEVKKPGASVKVSCKASGYTFTDYHMNWVRQAPGQRLEWMGDINPDIGGTSYNQNFKGRVTITRDTSASTAYMELSSLRSEDTAVYYCARWDFDSFANWGQGTLVTVSS VL: DIQMTQSPSSLSASVGDRVTITCRASESVSIIGTNLIHWYQQKPGKAPKLLIYHASNLETGVPSRFSGSGSGTDFTLTISSLQPEDFATYYCLQSRKIPYTFGGGTKVEIKR |  |  |  | 3.06 | 3.25
10 | Hu67-9 (antibody, human IgG1, kappa, V domains shown) VH: EVQLVQSGAEVKKPGESLKISCKGSGYSFTDYHMNWVRQMPGKGLEWMGDINPDIGGTSYNQNFKGQVTISADKSISTAYLQWSSLKASDTAMYYCARWDFDSFANWGQGTLVTVSS VL: DIQMTQSPSSLSASVGDRVTITCRASESVSIIGTNLIHWYQQKPGKAPKLLIYHASNLETGVPSRFSGSGSGTDFTLTISSLQPEDFATYYCLQSRKIPYTFGGGTKVEIKR |  |  |  | 3.72 | 3.75
11 | Hu67-10 (antibody, human IgG1, kappa, V domains shown) VH: EVQLVQSGAEVKKPGESLKISCKGSGYSFTDYHMNWVRQMPGKGLEWMGDINPDIGGTSYNQNFKGQVTISADKSISTAYLQWSSLKASDTAMYYCARWDFDSFANWGQGTLVTVSS VL: DIVMTQSPSSLSASVGDRVTITCRASESVSIIGTNLIHWYQQKPGKPPKLLIYHASNLETGVPSRFSGSGSGTDFTLTISSLQPEDFATYYCLQSRKIPYTFGGGTKVEIKR |  |  |  | 5.37 | 3.19

Reference: patent publication US20230055408A1 (JIANGSU HENGRUI MEDICINE, published 2023)
